Laboratory results reported in the RNAGym collection of RNA variant scans (doi:10.1093/molbev/msab373).

B1: Azoarcus group I ribozyme (parent)
chain: GUGCCUUGCGCCGGGAAACCACGCAAGGGAUGGUGUCAAAUUCGGCGAAACCUAAGCGCCCGCCCGGGCGUAUGGCAACGCCGAGCCAAGCUUCGGCGCCUGCGCCGAUGAAGGUGUAGAGACUAGACGGCACCCACCUAAGGCAAACGCUAUGGUGAAGGCAUAGUCCAGGGAGUGGCGAAAGUCACACAAACCGG

Variants of: B1
Assay: reverse-splicing fitness (ratio to wild type); higher = more active; in vitro selection; Mg2+ level not given
Procedure, shortened: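 An in vitro group I ribozyme library with randomized positions was T7-transcribed and gel-purified. In triplicate, 10 pmol RNA in EPPS pH 7.5 was reacted with 50 pmoles of a 30-nt RNA substrate for 1 h at 37 °C across several added MgCl2 levels (1–48 mM), then stopped with EDTA. Products were reverse transcribed from a substrate-complementary primer, PCR-amplified and sequenced (HiSeq 4000). Fitness is a variant's read proportion after selection over that before, normalised to wild type.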
With A111U A120G A145C C150U U176C the reverse-splicing fitness was 0.0201.
Variant A111U A120G A145C C150U U176G has a reverse-splicing fitness of 0.00458.
A111U A120G A145C C169A gave a reverse-splicing fitness of 0.11.
A111U A120G A145C C169A U176A gave a reverse-splicing fitness of 0.0217.
Work on A111U A120G A145C C169A U176C yielded a reverse-splicing fitness of 0.0194.
In the case of A111U A120G A145C C169A U176G, the reverse-splicing fitness is reported as 0.00414.
In the case of A111U A120G A145C C169G, the reverse-splicing fitness is reported as 0.193.
For A111U A120G A145C C169G U176A, the reverse-splicing fitness was 0.0371.
In the case of A111U A120G A145C C169G U176C, the reverse-splicing fitness is reported as 0.0387.
In the case of A111U A120G A145C C169G U176G, the reverse-splicing fitness is reported as 0.00442.
A111U A120G A145C C169U gave a reverse-splicing fitness of 0.151.
A111U A120G A145C C169U U176A showed a reverse-splicing fitness of 0.0455.
In the case of A111U A120G A145C C169U U176C, the reverse-splicing fitness is reported as 0.0453.
For A111U A120G A145C C169U U176G, the reverse-splicing fitness was 0.00629.
For A111U A120G A145C U176A, the reverse-splicing fitness was 0.038.
A111U A120G A145C U176C gave a reverse-splicing fitness of 0.0455.
For A111U A120G A145C U176G, the reverse-splicing fitness was 0.00566.
A111U A120G A145G gave a reverse-splicing fitness of 0.175.
A111U A120G A145G C150A gave a reverse-splicing fitness of 0.0285.
A111U A120G A145G C150A C169A gave a reverse-splicing fitness of 0.0192.
Variant A111U A120G A145G C150A C169A U176A has a reverse-splicing fitness of 0.0188.
In the case of A111U A120G A145G C150A C169A U176C, the reverse-splicing fitness is reported as 0.0255.
Variant A111U A120G A145G C150A C169A U176G has a reverse-splicing fitness of 0.00599.
In the case of A111U A120G A145G C150A C169G, the reverse-splicing fitness is reported as 0.0343.
In the case of A111U A120G A145G C150A C169G U176A, the reverse-splicing fitness is reported as 0.0198.
Variant A111U A120G A145G C150A C169G U176C has a reverse-splicing fitness of 0.0294.
For A111U A120G A145G C150A C169G U176G, the reverse-splicing fitness was 0.00526.
A111U A120G A145G C150A C169U showed a reverse-splicing fitness of 0.028.
With A111U A120G A145G C150A C169U U176A the reverse-splicing fitness was 0.0247.
In the case of A111U A120G A145G C150A C169U U176C, the reverse-splicing fitness is reported as 0.024.
With A111U A120G A145G C150A C169U U176G the reverse-splicing fitness was 0.00606.
With A111U A120G A145G C150A U176A the reverse-splicing fitness was 0.0138.
For A111U A120G A145G C150A U176C, the reverse-splicing fitness was 0.0274.
A111U A120G A145G C150A U176G showed a reverse-splicing fitness of 0.00712.
Work on A111U A120G A145G C150G yielded a reverse-splicing fitness of 0.0235.
In the case of A111U A120G A145G C150G C169A, the reverse-splicing fitness is reported as 0.0157.
Variant A111U A120G A145G C150G C169A U176A has a reverse-splicing fitness of 0.0126.
Work on A111U A120G A145G C150G C169A U176C yielded a reverse-splicing fitness of 0.0131.
Work on A111U A120G A145G C150G C169A U176G yielded a reverse-splicing fitness of 0.00787.
In the case of A111U A120G A145G C150G C169G, the reverse-splicing fitness is reported as 0.0234.
For A111U A120G A145G C150G C169G U176A, the reverse-splicing fitness was 0.00971.
For A111U A120G A145G C150G C169G U176C, the reverse-splicing fitness was 0.0108.
Work on A111U A120G A145G C150G C169G U176G yielded a reverse-splicing fitness of 0.00518.
Work on A111U A120G A145G C150G C169U yielded a reverse-splicing fitness of 0.0237.
Work on A111U A120G A145G C150G C169U U176A yielded a reverse-splicing fitness of 0.0113.
Variant A111U A120G A145G C150G C169U U176C has a reverse-splicing fitness of 0.015.
A111U A120G A145G C150G C169U U176G gave a reverse-splicing fitness of 0.00728.
Variant A111U A120G A145G C150G U176A has a reverse-splicing fitness of 0.0103.
A111U A120G A145G C150G U176C showed a reverse-splicing fitness of 0.0156.
With A111U A120G A145G C150G U176G the reverse-splicing fitness was 0.00598.
For A111U A120G A145G C150U, the reverse-splicing fitness was 0.133.
A111U A120G A145G C150U C169A gave a reverse-splicing fitness of 0.0845.
For A111U A120G A145G C150U C169A U176A, the reverse-splicing fitness was 0.0224.
A111U A120G A145G C150U C169A U176C gave a reverse-splicing fitness of 0.0274.
A111U A120G A145G C150U C169A U176G showed a reverse-splicing fitness of 0.00525.
A111U A120G A145G C150U C169G gave a reverse-splicing fitness of 0.166.
Work on A111U A120G A145G C150U C169G U176A yielded a reverse-splicing fitness of 0.0272.
Variant A111U A120G A145G C150U C169G U176C has a reverse-splicing fitness of 0.0424.
With A111U A120G A145G C150U C169G U176G the reverse-splicing fitness was 0.00498.
A111U A120G A145G C150U C169U gave a reverse-splicing fitness of 0.133.
Variant A111U A120G A145G C150U C169U U176A has a reverse-splicing fitness of 0.0386.
For A111U A120G A145G C150U C169U U176C, the reverse-splicing fitness was 0.0447.
With A111U A120G A145G C150U C169U U176G the reverse-splicing fitness was 0.00563.
With A111U A120G A145G C150U U176A the reverse-splicing fitness was 0.0295.
With A111U A120G A145G C150U U176C the reverse-splicing fitness was 0.0446.
For A111U A120G A145G C150U U176G, the reverse-splicing fitness was 0.00725.
A111U A120G A145G C169A gave a reverse-splicing fitness of 0.119.
A111U A120G A145G C169A U176A showed a reverse-splicing fitness of 0.0312.
Work on A111U A120G A145G C169A U176C yielded a reverse-splicing fitness of 0.0453.
For A111U A120G A145G C169A U176G, the reverse-splicing fitness was 0.00472.
With A111U A120G A145G C169G the reverse-splicing fitness was 0.222.
Variant A111U A120G A145G C169G U176A has a reverse-splicing fitness of 0.0455.
In the case of A111U A120G A145G C169G U176C, the reverse-splicing fitness is reported as 0.0601.
Variant A111U A120G A145G C169G U176G has a reverse-splicing fitness of 0.00492.
With A111U A120G A145G C169U the reverse-splicing fitness was 0.158.
A111U A120G A145G C169U U176A gave a reverse-splicing fitness of 0.0467.
Variant A111U A120G A145G C169U U176C has a reverse-splicing fitness of 0.0538.
For A111U A120G A145G C169U U176G, the reverse-splicing fitness was 0.00601.
A111U A120G A145G U176A gave a reverse-splicing fitness of 0.0417.
Work on A111U A120G A145G U176C yielded a reverse-splicing fitness of 0.0543.
In the case of A111U A120G A145G U176G, the reverse-splicing fitness is reported as 0.00558.
A111U A120G A145U showed a reverse-splicing fitness of 0.172.
A111U A120G A145U C150A showed a reverse-splicing fitness of 0.0183.
With A111U A120G A145U C150A C169A the reverse-splicing fitness was 0.0164.
